Source: patent US20070141625A1 (published 2007)

Target: T1, protein C (PC) (UniProt P04070 43-461)
T1 construct: Commercial PC
Experiment: inhibition by rhsEPCR 2 µM of PC activation by thrombin on EA.hy926 endothelial cells; Ki derived from the shift of Km
Description: Proc Natl Acad Sci USA. 1996; 93:10212-6). 5×10⁴ cells/well were incubated in a 96-well plate with 0.02 U/ml of thrombin (0.17 nM) (ERL, Swansea, United Kingdom) and growing concentrations of PC (Baxter, Deerfield, Ill., USA) between 50 and 1000 nM in Tris 20 mM buffer, pH 7.4, supplemented with NaCl 150 mM, CaCl₂ 5 mM, MgCl₂ 0.6 mM, 1% BSA, 0.001% Tween-20 and 0.02% NaN₃. After 45 minutes at room temperature, lepirudin was added (Schering A G, Berlin, Germany) at an end concentration of 0.2 μmol/L, to inhibit thrombin; 3-4 minutes later, chromogenic substrate S-2366 was added (Chromogenix, Milan, Italy) at an end concentration of 0.4 mM with the purpose of monitoring its proteolysis by APC. The increase in absorbance at 405 nm was recorded kinetically with a microplate reader (iEMS REader, Labsystems, Finland). Curve data fitting to the Michaelis-Menten equation was carried out using the Enzfitter program (Biosoft, Cambridge, United Kingdom), which calculated the Km of PC activation under those conditions. Where necessary, 45 μg/ml of purified anti-EPCR autoantibodies from patients (see below) were added simultaneously with the thrombin and PC. Thus, the effect of the anti-EPCR autoantibodies upon PC activation could be analyzed. […]

T1 sequence (P04070 43-461): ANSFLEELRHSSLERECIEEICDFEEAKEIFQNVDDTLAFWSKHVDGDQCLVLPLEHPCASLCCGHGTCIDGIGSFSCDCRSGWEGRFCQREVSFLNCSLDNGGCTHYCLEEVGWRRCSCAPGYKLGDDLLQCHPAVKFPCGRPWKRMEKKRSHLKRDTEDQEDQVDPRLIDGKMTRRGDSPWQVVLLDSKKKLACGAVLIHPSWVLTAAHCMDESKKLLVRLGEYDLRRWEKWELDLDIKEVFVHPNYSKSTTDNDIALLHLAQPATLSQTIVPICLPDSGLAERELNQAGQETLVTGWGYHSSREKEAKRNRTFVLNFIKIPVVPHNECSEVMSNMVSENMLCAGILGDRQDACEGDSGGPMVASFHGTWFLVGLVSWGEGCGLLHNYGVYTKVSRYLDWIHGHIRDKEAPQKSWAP

Ki: ~70 nM
B1: recombinant human soluble EPCR (rhsEPCR) (receptor)
chain: SISQDASDGLQRLHMLQISYFRDPYHVWYQGNASLGGHLTHVLEGPDTNTTIIQLQPLQEPESWARTQSGLQSYLLQFHGLVRLVHQERTLAFPLTIRCFLGCELPPEGSRAHVFFEVAVNGSSFVSFRPERALWQADTQVTSGVVTFTLQQLNAYNRTRYELREFLEDTCVQYVQKHISAENTKGSQTSRSYTSAAASFLEQKLISEEDLNSAVDHHHHHH
notes: also called recombinant sEPCR; human recombinant EPCR in soluble form
